Results as given in PMC1361615.

Biological target: His-tagged M.RsrI (UniProt P14751 1-319)
Test: size-exclusion chromatography

Chain of His-tagged M.RsrI (P14751 whole entry): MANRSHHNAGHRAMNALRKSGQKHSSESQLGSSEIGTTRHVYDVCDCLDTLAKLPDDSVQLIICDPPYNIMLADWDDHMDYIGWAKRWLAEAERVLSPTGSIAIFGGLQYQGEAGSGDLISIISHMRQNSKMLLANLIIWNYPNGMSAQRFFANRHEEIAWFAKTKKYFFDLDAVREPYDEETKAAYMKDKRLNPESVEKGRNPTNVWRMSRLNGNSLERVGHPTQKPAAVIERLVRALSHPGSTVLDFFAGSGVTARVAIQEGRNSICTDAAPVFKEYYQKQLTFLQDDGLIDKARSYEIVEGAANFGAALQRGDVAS

B1: 25 bp unmethylated duplex, gel filtration (dsDNA)
DNA 1: GGCAGACACGGAATTCCACAGACGG
DNA 2: CCGTCTGTGGAATTCCGTGTCTGCC
modifications: none
  binding result: binds
